Here are results for two compounds from PMC9751785, “Characterization and Identification of a novel chromosome-encoded metallo-β-lactamase WUS-1 in Myroides albus P34” (Frontiers in Microbiology, 2022).

The target of one series is T1, WUS-1 (Myroides albus, UniProt A0A6I3LH21, K23R).
T1 construct: gene bla; mature domain, signal peptide removed (predicted cleavage between 19 and 20, Ala/Gln); pCold I in E. coli BL21, His-tag cut with thrombin; zinc enzyme
As to the kind of experiment: spectrophotometric imipenem hydrolysis, inhibition. In kind it is biochemical.

Series [1] concerns CC1(C)S[C@@H]2[C@H](NC(=O)C(C(=O)O)c3ccccc3)C(=O)N2[C@H]1C(=O)O. The series is described as follows: continuous spectrophotometric hydrolysis assay, Michaelis-Menten fit. It counts as biochemical, Myroides albus. As to conditions: 10 mM phosphate pH 7.4, 50 μM ZnCl2, 30 °C, SD within 15%. The source says:
(§1) continuous spectrophotometric hydrolysis assay, Michaelis-Menten fit on WUS-1

Series [2] has as its system CC1(C)S[C@@H]2[C@H](NC(=O)[C@H](C(=O)O)c3ccsc3)C(=O)N2[C@H]1C(=O)O. Described as above. Conditions: 10 mM phosphate pH 7.4, 50 μM ZnCl2, 30 °C, SD within 15%. It counts as biochemical, Myroides albus.
Description: as §1

Series [3] concerns CC1(C)S[C@@H]2[C@H](NC(=O)[C@H](N)c3ccccc3)C(=O)N2[C@H]1C(=O)O. The series is described as above. It counts as biochemical, Myroides albus. As to conditions: 10 mM phosphate pH 7.4, 50 μM ZnCl2, 30 °C, SD within 15%.
Description: as §1

The subject of series [4] is CO[C@@]1(NC(=O)Cc2cccs2)C(=O)N2C(C(=O)O)=C(COC(N)=O)CS[C@@H]21. The series is described as above. In kind it is biochemical, Myroides albus. As to conditions: 10 mM phosphate pH 7.4, 50 μM ZnCl2, 30 °C, SD within 15%.
Description: as §1

The test system of series [5] is C[C@@H](O)[C@H]1C(=O)N2C(C(=O)O)=C(SCCN=CN)C[C@H]12. The description is as above. It counts as biochemical, Myroides albus. Conditions: 10 mM phosphate pH 7.4, 50 μM ZnCl2, 30 °C, SD within 15%.
Description: as §1

Series [6] relates to C[C@@H](O)[C@H]1C(=O)N2C(C(=O)O)=C(S[C@@H]3CN[C@H](C(=O)N(C)C)C3)[C@H](C)[C@H]12. The description is as above. It counts as biochemical, Myroides albus. Conditions: 10 mM phosphate pH 7.4, 50 μM ZnCl2, 30 °C, SD within 15%.
Description: as §1

For series [7], the system named is Cc1nnc(SCC2=C(C(=O)O)N3C(=O)[C@@H](NC(=O)Cn4cnnn4)[C@H]3SC2)s1. The series is described as above. It counts as biochemical, Myroides albus. As to conditions: 10 mM phosphate pH 7.4, 50 μM ZnCl2, 30 °C, SD within 15%.
Description: as §1

A word on the IC50: it is the concentration that gives 50% inhibition. Higher therefore signals a need for much substance. A word on the Km: it is the substrate concentration at which the rate is half of its maximum. Usually kcat stands for the maximal rate divided by the concentration of active sites. The kcat/Km is the second-order rate constant that governs catalysis at low substrate concentration.

T1 sequence (A0A6I3LH21 entry or part of it K23R): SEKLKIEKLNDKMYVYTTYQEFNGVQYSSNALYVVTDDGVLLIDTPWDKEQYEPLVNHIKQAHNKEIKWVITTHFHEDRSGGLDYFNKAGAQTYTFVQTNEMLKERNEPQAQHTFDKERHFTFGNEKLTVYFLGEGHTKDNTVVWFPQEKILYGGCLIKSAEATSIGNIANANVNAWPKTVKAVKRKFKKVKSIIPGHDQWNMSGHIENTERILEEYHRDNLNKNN

On WUS-1, `O=C(O)CN(CCN(CC(=O)O)CC(=O)O)CC(=O)O` [EDTA] came in with an IC50 of 71.3 µM.

Turning to WUS-1 (Myroides albus; K23R), the Km is 581 µM in series [1]; 827.4 µM in series [2]; 290.2 µM in series [3]; 44.33 µM in series [4]; 334.8 µM in series [5]; 147.4 µM in series [6]. Besides, the Km in series [7] was 59.86 µM. The kcat turned out to be 1120 s⁻¹ in series [1]; 703 s⁻¹ in series [2]; 2920 s⁻¹ in series [3]; 14.2 s⁻¹ in series [4]; 1340 s⁻¹ in series [5]; 477 s⁻¹ in series [6]. Also, in series [7], the kcat was 33.9 s⁻¹. Also, the kcat/Km in series [1] turned out to be 1.93e+06 M⁻¹ s⁻¹; in series [2] it was 850000 M⁻¹ s⁻¹; in series [3], 1.01e+07 M⁻¹ s⁻¹; in series [4], 320000 M⁻¹ s⁻¹; in series [5] it was 3.99e+06 M⁻¹ s⁻¹; in series [6], 3.24e+06 M⁻¹ s⁻¹. In addition, in series [7], the kcat/Km came to 570000 M⁻¹ s⁻¹.
